This is an account of results in US20130022601A1 (Hoffmann-La Roche, published 2013).

One assay deals with T1, Her3 (ErbB3) receptor (human, UniProt P21860 20-1342).
T1 construct: whole, on cells; Endogenous receptor on human cancer cell lines
The assay can be described thus: flow cytometry on A431 cells, PE-coupled anti-human Fc secondary antibody. As to the method: (§1) A431 were detached and counted. 1.5×10e5 cells were seeded per well of a conical 96-well plate. Cells were spun down (1500 rpm, 4° C., 5 min) and incubated for 30 min on ice in 50 μL of a dilution series of the respective bispecific antibody in PBS with 2% FCS (fetal calf serum). Cells were again spun down and washed once with 200 μL PBS containing 2% FCS followed by a second incubation of 30 min with a phycoerythrin-coupled antibody directed against human Fc which was diluted in PBS containing 2% FCS (Jackson Immunoresearch, 109116098). Cells were spun down washed twice with 200 μL PBS containing 2% FCS, resuspended in BD CellFix solution (BD Biosciences) and incubated for at least 10 min on ice. Mean fluorescence intensity (mfi) of the cells was determined by flow cytometry (FACS Canto, BD). Mfi was determined at least in duplicates of two independent stainings Flow cytometry spectra were further processed using the FlowJo software (TreeStar). Half-maximal binding was determined using XLFit 4.0 (IDBS) and the dose response one site model 205.
(§2) The binding properties of the bispecific antibodies to their respective receptor on the cell surface was analyzed on A431 cancer cells in a flow cytometry based assay. Cells were incubated with the mono- or bispecific primary antibodies and binding of these antibodies to their cognate receptors was detected with a secondary antibody coupled to a fluorophore binding specifically to the Fc of the primary antibody. The mean fluorescence intensity of a dilution series of the primary antibodies was plotted against the concentration of the antibody to obtain a sigmoidal binding curve. Cell surface expression of c-Met and Her3 was validated by incubation with the bivalent 5D5 and Her3 clone 29 antibody only. The Her3/c-Met_KHSS antibody readily binds to the cell surface of A431.

Another assay deals with T2, c-Met receptor (human, UniProt P08581 25-1390).
T2 construct: whole, on cells; Endogenous receptor on human cells
The assay is described as above. The procedure:
as §1, §2

T1 sequence (P21860 20-1342): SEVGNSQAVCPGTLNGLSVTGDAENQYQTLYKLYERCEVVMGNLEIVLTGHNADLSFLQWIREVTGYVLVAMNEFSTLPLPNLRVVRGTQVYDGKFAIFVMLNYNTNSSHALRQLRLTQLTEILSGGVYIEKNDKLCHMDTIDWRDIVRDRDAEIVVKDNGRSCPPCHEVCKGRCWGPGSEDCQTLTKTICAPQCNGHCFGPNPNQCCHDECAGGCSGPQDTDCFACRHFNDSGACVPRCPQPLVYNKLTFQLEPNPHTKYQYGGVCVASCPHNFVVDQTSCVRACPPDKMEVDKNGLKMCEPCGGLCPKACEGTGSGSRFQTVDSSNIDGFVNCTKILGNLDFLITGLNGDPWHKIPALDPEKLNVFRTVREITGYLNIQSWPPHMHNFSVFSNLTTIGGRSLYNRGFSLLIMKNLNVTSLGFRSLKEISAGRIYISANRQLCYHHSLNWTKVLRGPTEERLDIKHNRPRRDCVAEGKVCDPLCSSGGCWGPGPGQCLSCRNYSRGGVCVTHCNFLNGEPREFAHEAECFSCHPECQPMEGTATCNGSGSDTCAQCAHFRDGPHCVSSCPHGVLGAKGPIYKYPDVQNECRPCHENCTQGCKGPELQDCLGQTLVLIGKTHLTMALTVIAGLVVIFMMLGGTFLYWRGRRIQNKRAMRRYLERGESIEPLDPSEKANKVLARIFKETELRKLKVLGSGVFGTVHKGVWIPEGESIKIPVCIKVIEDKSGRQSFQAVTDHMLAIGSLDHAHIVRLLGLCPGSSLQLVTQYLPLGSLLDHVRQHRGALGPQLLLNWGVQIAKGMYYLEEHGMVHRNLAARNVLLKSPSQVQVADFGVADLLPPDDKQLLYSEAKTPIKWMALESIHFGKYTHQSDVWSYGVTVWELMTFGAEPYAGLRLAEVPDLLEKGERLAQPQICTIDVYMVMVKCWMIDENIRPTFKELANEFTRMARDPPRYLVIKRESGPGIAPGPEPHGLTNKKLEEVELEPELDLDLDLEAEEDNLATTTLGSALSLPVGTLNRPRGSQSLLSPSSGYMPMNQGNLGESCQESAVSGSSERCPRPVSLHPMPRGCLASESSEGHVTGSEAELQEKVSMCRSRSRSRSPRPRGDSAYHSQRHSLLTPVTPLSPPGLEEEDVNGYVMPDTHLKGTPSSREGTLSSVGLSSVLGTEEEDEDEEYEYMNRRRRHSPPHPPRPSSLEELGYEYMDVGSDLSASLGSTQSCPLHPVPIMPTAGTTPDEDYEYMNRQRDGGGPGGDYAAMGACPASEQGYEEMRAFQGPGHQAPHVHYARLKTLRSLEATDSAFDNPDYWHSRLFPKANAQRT
T2 sequence (P08581 25-1390): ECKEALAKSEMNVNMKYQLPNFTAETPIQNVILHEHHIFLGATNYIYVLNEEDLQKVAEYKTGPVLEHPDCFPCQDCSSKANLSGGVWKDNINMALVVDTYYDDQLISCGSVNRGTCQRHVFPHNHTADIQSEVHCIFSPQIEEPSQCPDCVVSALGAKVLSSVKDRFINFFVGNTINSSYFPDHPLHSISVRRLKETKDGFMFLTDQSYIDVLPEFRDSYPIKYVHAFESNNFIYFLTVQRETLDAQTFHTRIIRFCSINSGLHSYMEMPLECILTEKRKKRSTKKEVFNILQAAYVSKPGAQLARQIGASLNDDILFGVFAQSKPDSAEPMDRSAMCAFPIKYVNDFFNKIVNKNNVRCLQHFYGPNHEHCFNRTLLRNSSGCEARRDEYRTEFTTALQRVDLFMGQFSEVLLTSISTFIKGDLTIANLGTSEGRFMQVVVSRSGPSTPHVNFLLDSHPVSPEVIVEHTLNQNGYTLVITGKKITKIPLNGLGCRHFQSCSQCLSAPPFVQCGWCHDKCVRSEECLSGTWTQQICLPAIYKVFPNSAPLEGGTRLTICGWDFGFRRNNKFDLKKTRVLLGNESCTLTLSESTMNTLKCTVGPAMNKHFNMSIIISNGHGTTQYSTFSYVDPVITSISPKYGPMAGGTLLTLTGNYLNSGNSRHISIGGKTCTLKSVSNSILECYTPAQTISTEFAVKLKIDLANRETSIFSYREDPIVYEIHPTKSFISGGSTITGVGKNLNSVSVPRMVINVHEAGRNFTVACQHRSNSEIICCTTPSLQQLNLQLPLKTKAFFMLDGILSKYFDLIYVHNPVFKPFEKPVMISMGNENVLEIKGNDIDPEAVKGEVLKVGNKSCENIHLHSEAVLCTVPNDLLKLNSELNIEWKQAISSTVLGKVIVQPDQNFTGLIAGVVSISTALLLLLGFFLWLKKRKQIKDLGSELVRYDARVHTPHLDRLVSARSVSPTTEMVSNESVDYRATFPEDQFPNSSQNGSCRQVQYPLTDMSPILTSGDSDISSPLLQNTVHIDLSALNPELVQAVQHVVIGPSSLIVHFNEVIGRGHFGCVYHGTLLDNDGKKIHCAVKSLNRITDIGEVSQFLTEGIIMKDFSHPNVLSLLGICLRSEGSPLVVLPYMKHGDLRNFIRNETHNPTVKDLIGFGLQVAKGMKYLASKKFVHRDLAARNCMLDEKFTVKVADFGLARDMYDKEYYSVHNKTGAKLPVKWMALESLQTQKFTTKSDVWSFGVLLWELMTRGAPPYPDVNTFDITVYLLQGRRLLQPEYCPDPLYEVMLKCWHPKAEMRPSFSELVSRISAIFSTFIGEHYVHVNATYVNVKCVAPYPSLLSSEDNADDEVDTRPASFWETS

B1: trivalent, bispecific <ErbB3-c-Met> antibody Her3/Met_KHSS (bispecific antibody, human IgG1, kappa)
heavy 1: not shown
heavy 2: not shown
light: DIQMTQTTSSLSASLGDRVTISCRARQDISNYLNWYQRKPDGTVKLLIYYTSRLHSGVPSRFSGSGSGTDYSLTISNLEQEDIATYFCQQGNTFPWTFGGGTKLEIKRTVAAPSVFIFPPSDEQLKSGTASVVCLLNNFYPREAKVQWKVDNALQSGNSQESVTEQDSKDSTYSLSSTLTLSKADYEKHKVYACEVTHQGLSSPVTKSFNRGEC
notes: Full length Her3 clone 29 (chimeric) antibody with knobs-into-holes and CH3 disulfide mutations
On to B1, for which the binding result in the assay with Her3 (ErbB3) receptor is reported as “binds”.

B2: <c-Met> Mab 5D5 (antibody, human IgG1, kappa, V domains shown)
VH: EVQLVESGGGLVQPGGSLRLSCAASGYTFTSYWLHWVRQAPGKGLEWVGMIDPSNSDTRFNPNFKDRFTISADTSKNTAYLQMNSLRAEDTAVYYCATYRSYVTPLDYWGQGTLVTVSS
VL: DIQMTQSPSSLSASVGDRVTITCKSSQSLLYTSSQKNYLAWYQQKPGKAPKLLIYWASTRESGVPSRFSGSGSGTDFTLTISSLQPEDFATYYCQQYYAYPWTFGQGTKVEIKR
notes: Bivalent 5D5 antibody (humanized), with unmodified heavy and light chains; also called bivalent 5D5; c-Met 5D5
B2: the binding result with c-Met receptor is recorded as “binds”.

B3: <ErbB3> HER3 clone 29 antibody (antibody, human IgG1, kappa, V domains shown)
VH: DVQLQESGPGLVKPSQSLSLTCSVTGYSITSAYYWNWIRQFPGNKLEWMGYISYGGSNSYAPSLKNRFSITRDTSKNQFFLKLNSVTTEDTATYYCARESDYAYFDYWGQGTTLTVSS
VL: DIQMTQTTSSLSASLGDRVTISCRARQDISNYLNWYQRKPDGTVKLLIYYTSRLHSGVPSRFSGSGSGTDYSLTISNLEQEDIATYFCQQGNTFPWTFGGGTKLEIKR
notes: Bivalent parental antibody (chimeric), with unmodified heavy and light chains; also called parental Her3 clone29
As for B3, the binding result in the assay with Her3 (ErbB3) receptor is given as “binds”.
